Experimental findings from PMC8124205, “Immuno-PET Molecular Imaging of RANKL in Cancer” (Cancers, 2021) are described below.

In the assay the target is T1, osteoprotegerin (OPG) (UniProt O00300 22-401).
T1 construct: osteoprotegerin (OPG)
T1 sequence (looked up): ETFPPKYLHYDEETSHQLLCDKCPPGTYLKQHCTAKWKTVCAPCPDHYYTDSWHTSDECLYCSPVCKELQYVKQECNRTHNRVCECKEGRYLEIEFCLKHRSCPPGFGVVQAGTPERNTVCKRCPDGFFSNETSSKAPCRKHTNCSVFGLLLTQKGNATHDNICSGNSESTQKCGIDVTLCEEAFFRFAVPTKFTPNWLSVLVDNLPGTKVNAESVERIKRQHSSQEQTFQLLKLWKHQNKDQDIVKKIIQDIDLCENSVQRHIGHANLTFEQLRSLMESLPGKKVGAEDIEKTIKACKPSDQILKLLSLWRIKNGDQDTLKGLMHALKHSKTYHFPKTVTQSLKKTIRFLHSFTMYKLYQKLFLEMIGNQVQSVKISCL
Kind of assay: non-cell based binding assay; binding to human RANKL, as previously described (ref. 14); format and conditions not told.

B1: human receptor activator of nuclear factor kappa B ligand (RANKL) (ligand, UniProt O14788 140-317, looked up)
chain: IRAEKAMVDGSWLDLAKRSKLEAQPFAHLTINATDIPSGSHKVSLSSWYHDRGWAKISNMTFSNGKLIVNQDGFYYLYANICFRHHETSGDLATEYLQLMVYVTKTSIKIPSSHTLMKGGSTKYWSGNSEFHFYSINVGGFFKLRSGEEISIEVSNPSLLDPDQDATYFGAFKVRDID
notes: also called human RANKL; huRANKL; source: recombinant protein huRANKL, provided by Amgen Inc
Usually Kd stands for the equilibrium constant for the complex coming apart. Read a high Kd as weaker binding. On to B1, for which the Kd was about 0.63 nM.
